Measurements reported in patent US20170158755A1 (PROTHENA BIOSCIENCES, published 2017).

Columns and labels:
[1] = target: T1, LGde2, human LAMA4 G domain with LG2 deleted, displayed on 293 cells (human, UniProt Q16363 830-1821, limits assumed); test: flow cytometry on 293 cells displaying LAMA4 G-domain variants; % binding
T1 construct: pDisplay construct on 293 cells; vector tags and anchor not written here; also called LGde2 (LG13)
T1 sequence: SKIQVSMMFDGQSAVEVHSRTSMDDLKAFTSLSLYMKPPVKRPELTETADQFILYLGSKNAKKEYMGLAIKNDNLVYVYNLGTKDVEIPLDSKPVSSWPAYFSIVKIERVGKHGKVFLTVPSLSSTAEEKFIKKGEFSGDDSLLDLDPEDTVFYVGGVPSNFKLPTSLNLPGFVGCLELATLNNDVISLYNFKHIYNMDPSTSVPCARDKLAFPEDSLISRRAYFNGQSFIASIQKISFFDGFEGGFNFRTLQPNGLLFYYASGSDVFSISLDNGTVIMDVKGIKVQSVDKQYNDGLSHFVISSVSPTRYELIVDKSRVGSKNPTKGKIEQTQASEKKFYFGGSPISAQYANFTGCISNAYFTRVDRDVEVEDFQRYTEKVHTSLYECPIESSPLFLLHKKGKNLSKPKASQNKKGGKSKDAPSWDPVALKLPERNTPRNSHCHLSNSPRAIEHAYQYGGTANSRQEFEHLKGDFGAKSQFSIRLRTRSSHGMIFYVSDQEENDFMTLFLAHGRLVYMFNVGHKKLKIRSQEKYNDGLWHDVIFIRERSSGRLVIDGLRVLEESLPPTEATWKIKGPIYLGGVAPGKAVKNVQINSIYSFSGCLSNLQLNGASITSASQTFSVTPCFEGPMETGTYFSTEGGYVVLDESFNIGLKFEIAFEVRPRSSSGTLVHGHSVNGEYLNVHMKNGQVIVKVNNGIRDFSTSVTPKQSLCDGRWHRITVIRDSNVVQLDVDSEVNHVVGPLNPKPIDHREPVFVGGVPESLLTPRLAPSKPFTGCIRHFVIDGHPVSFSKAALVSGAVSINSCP
Excerpt: (§1) LGde1 has a full-length G domain (i.e., LG1-5) with LG1 deleted, LGde2 has a full-length G domain with LG2 deleted, and LGde3 has a full-length G domain with LG3 deleted. Recombinant MCAM-Fc protein was able to specifically bind 293 cells expressing LAMA4 variants LG1-5, LG1-3, and LGde 1 (LG23), but not 293 cells expressing LAMA 4 variants LG4-5, LGde2 (LG13), or LGde3 (LG12).

[2] = target: T2, LGde3, human LAMA4 G domain with LG3 deleted, displayed on 293 cells (human, UniProt Q16363 830-1821, limits assumed); test: as above
T2 construct: pDisplay construct on 293 cells; vector tags and anchor not written here; also called LGde3 (LG12); LGde3 (LG23)
T2 sequence: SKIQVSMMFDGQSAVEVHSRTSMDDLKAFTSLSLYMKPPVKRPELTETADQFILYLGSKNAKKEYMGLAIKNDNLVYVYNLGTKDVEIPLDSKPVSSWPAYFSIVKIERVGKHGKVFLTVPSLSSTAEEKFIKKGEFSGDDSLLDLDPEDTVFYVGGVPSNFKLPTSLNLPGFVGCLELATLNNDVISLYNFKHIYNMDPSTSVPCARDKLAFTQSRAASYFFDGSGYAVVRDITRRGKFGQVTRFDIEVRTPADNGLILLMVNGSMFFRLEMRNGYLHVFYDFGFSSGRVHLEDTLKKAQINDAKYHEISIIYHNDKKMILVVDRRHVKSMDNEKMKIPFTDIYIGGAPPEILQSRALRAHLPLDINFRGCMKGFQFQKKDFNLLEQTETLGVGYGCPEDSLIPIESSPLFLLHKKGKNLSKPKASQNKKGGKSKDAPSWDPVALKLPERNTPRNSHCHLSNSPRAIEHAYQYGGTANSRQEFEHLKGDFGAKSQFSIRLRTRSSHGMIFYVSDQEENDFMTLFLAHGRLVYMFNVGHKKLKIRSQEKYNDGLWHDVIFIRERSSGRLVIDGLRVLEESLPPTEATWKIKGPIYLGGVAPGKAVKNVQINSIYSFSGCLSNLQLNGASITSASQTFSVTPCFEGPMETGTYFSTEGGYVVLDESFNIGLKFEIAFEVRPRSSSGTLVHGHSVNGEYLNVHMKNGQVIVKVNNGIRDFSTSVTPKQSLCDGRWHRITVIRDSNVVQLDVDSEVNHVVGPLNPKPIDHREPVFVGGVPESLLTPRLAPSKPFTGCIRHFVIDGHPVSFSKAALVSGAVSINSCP
Excerpt: as §1

Binder | binding result [1] | binding result [2]
mouse monoclonal antibody 1C1 (antibody, V domains shown, version 1 is written here) VH: QVQLQQSGAELARPGASVKLSCKASGYTFTNYGISWVKQRTGQGLEWIGAIYPRSGNTYYNEKFKGKATLTADKSSSTAYMELRSLTSEDSAVYFCARERDYGSSYALDYWGQGTSVTVSS VL: DIVMTQSQKFMSTSVGDRVSVTCKASHNVGTNVAWYQQKPGQSPKPLIYSASYRYSGVPDRFTGSGSGTDFTLTISNVQSEDLADYFCQQFNNYPYTFGGGTKLEIKR | no binding | no binding
mouse monoclonal antibody 19C12 (antibody, V domains shown, Mouse hybridoma antibody; Mouse IgG2b was used as its isotype control; also called m19C12) VH: QVQLQQSGAELVKPGASVKISCKASGYAFSTYWMNWVKQRPGEGLEWIGQIYPGDGDTNYNGKFKGKATLTADKSSSTAYMQLSSLTSEDSAVYFCARSDGYYDYWGQGTTLTVSS VL: NIVLTQSPASLAVSLGQRATISCRASESVDSYGTSFMHWYQQKPGQPPKLLICLASSLESGVPARFSGSGSRTDFTLTIDPVEADDAATYYCQQNNEDPPTFGAGTKLELKR | no binding | no binding
